Data taken from patent US8076297B2, “Pharmaceutical composition containing polypeptide fragments of serralysins” (Centro De Ingenieria Genetica Y Biotecnologia, priority 2004, dated 2011).
“Also recorded” adds a separate entry of the source. Read-outs that look alike come from different tables or passages of the source.

Key:
HEp-2 cells = assay: Anti-proliferative assay on HEp-2 cells, MTT method; format: cell-based, human
Experimental: For the characterization of the antiproliferative activity of MG2327 “in vitro” a panel of human cell lines was evaluated (table 1). A total of 2000 cells, except for PBMC (20000), were seeded in 96 wells culture wells, and different concentrations of MG2327 were added. After 72 hours, the number of survival cells was estimated by addition of MTT (Skehan, P., Storeng, R., Scudiero, D., Monks, A., Mcmahon, J., Vistica, D., Warren, J. T., Bokesch, H., Kenney, S. and BOYD, M. R. 1990. J Natl Cancer Inst. 82:1107). The soluble formazan products were detected at 540 nm in a multiscan plate reader.

P3X63Ag8 mieloide tumor = assay: Regression of implanted P3X63Ag8 myeloid tumor; format: in vivo, BALB/c mice
Experimental: The p25 was them injected i.p. to mice BALB/c after of 8 days of implanted P3X63Ag8 mieloide tumor and perfectly development. The doses of 22 μg/kg of weigh of p25 induced total regression in the 80% of the animals treatment. the negative controls death in the end of 30 days, where already had development compact tumors.

casein = assay: Proteolytic activity, modified Anson and Mirsky method; format: biochemical
From the text: The modify method of Anson y Mirsky (Anson, M. L., Mirsky, A. E. 1932. J. Gen. Physiol. 16: 59) using casein as sustrate, was adjust in our laboratory with Tripsina (y=1.9314x-0.682; R^2=0.999). The proteic fraccions obtained in the chromatography describe in the Example 6 were assay with this method.

gelatine = assay: Proteolytic activity, zymogram method; format: biochemical
From the text: The method of the cimogeno using gelatine as sustrate (Vacca, A., Iurlaro, M., Ribatti, D., Minischetti, M., Nico, B., Ria, R., Pellegrino, A. and Dammacco, F. 1999. Blood. 94:4143-4155) was employed to verify the proteolytic activity of p50 and p25. Moreover was analized the enzymatic capacity of the degradation of p50.

[1] = tested on: human microvasculature endothelial cells (HMEC); assay: Formation of tubular structures in matrigel; format: cell-based; settings: non-cytotoxic concentrations; activation with 10 ng/mL EGF, 1 μg/mL hydrocortisone
From the text: Anti-angiogenic effect of MG2327 and anti-proliferative polypeptides fragments were evaluate by the method of formation of tubular structure in matrigel. Non citotoxic concentration of MG2327 and their fraction p25 y p50 were incubed with human microvasculature endothelial celulas (HMEC). The final result it evalued considering the tubular structure length formed and the number of interconexión between them. For this used Pro Express 4.5 Image-program.
Human micro-vasculature-derived human endotelial cells (HMEC) were assessed for endothelial cord formation on matrigel (Crum R, Szabo S, Folkman J. 1985. Science. 230:1375-8; Vacca, A., Ribatti, D., Presta, M., Minischettti, M., lurlaro, M, Ria, R, Albini, A, Bussolino, F. and Dammaacco, F. 1999. Blood 93:3064) after culture under non-cytotoxic MG2327 and p25 and p50 concentrations (Sanz, L., Pascual, M., Muñoz, A., González, M. A., Salvador C H, Álvarez-Vallina L. 2002. Microvascular Research 63:335-339). Results considered the length of tubular structures and the number of interconnections between them, as calculated by using the Image-Pro Express 4.5 package.

[2] = tested on: murine mieloma P3X63Ag8 cells; assay: Apoptosis: DNA laddering and electron microscopy; format: cell-based
Experimental: For determining the kind of tumoral cell death, murine mieloma P3X63Ag8 cells (2*10^7) were treated in vitro with MG2327 at 22 μg/mL. Treated and untreated cells were prepared for ultrastructural transmission electron microscopy studies at different times, and genomic DNA was extracted for DNA laddering assay.
DNA fragmentation was assessed by 2% agarose gel electrophoresis. Apoptosis frequently involves cellular DNA laddering of 180-200 bp, representative of inter-nucleosomal distances (Soldatenkov, V. A., Prasad, S., Voloshin, Y., and Dritschilo, A. 1998. Cell Death Differ. 5:307-12).

B1: p25: 25 kDa non-proteolytic C-terminal fragment of serralysin PRZN_SERMA/PRZN_SERSP, degradation product of p50 (protein)
chain: SYWSETNTGGDNGGHYAAAPLLDDIAAIQHLYGANPSTRTGDTVYGFNSNTGRDFLSTTSNSQKVIFAAWDAGGNDTFDFSGYTANQRINLNEKSFSDVGGLKGNVSIAAGVTIENAIGGSGNDVIVGNAANNVLKGGAGNDVLFGGGGADELWGGAGKDIFVFSAASDSAPGASDWIRDFQKGIDKIDLSFFNKEANSSDFIHFVDHFSGTAGEALLSYNASSNVTDLSVNIGGHQAPDFLVKIVGQVDVATDFIV
inhibition of the growing of the tumor cells (HEp-2 cells; 18 μg/mL): 100% | activity of 25 kDa fraction compared with 50 kDa fraction (HEp-2 cells; 9 and 18 μg/mL): most active | activity of 25 kDa component compared with MG2327 (HEp-2 cells; doses of 2.5, 4.5 and 9 μg/mL): showed major biologic activity | IC50 (HEp-2 cells; fractions recovered from SDS gels and renaturalized, p50 with Zn4SO2 5 μM added, read-out: IC50 (FIG. 2)): 0.35 nM | IC50 (HEp-2 cells; fractions recovered from SDS gels, p50 incubated with 5 μM Zn2SO4, read-out: IC50 of the fractions p25 and p50): 0.48 nM | antiproliferative activity (HEp-2 cells; gel-recovered fractions, no zinc added (incubated with EDTA)): dosis-dependiente potent anti-proliferative activity; also recorded: strong antiproliferative dose dependent activity | anti-proliferative effect (HEp-2 cells; proteins purified by DEAE chromatography): showed anti-proliferative effect on HEp.2 | animals with total regression (P3X63Ag8 mieloide tumor; 22 μg/kg i.p., 8 days after tumor implant): 80% | tumor regression (P3X63Ag8 mieloide tumor; mouse, in vivo): induce total regression | proteolytic (enzymatic) activity (casein): no showed enzymatic activity; also recorded: non present enzymatic activity; also recorded: do not present activity | proteolytic activity (gelatine): no showed this activity | differentiation of endothelial cells / tubular net formation [1]: significant inhibition; also recorded: index of net formation inferior to that observed for MG2327 and p50 | ultrastructural changes (electron microscopy) [2]: chromatin condensing, damaged mitrocondria cristae and clustered mitocondria were detected
